Data as given in patent publication US20170334962A1 (TEXAS A AND M UNIVERSITY SYSTEM, published 2017).
Where a chain is given by its changes, count along the chain named. Numbers in names are those of the source. Blank lines part the entries; values can stand above or below the binder they belong to.

What was measured:
[1] = target: T1, recombinant soluble mouse FcRn (mouse, UniProt Q61559 22-290; P01887 21-119, limits assumed); assay: SPR (BIAcore 2000), Fc-hinge immobilized by amine coupling, soluble mouse FcRn as analyte, pH 6.0; value for the higher affinity site; pH 6.0
T1 construct: also called mFcRn
T1 sequence (looked up) 1: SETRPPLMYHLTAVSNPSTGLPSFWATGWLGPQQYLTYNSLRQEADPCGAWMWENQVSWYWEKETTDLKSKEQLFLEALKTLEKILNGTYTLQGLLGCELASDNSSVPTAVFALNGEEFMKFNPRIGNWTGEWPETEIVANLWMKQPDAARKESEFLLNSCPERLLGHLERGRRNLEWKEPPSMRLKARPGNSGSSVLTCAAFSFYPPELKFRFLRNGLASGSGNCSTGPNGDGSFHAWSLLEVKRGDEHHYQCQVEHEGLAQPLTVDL
T1 sequence (looked up) 2: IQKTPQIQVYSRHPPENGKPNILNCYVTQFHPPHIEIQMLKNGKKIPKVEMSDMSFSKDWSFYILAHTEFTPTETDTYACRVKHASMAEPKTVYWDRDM
Description: (§1) Equilibrium dissociation constants of WT and mutated mouse Fc-hinge fragments (IgG1-derived) for binding to recombinant mouse FcRn were determined using surface plasmon resonance and a BlAcore 2000. Mouse Fc-hinge fragments were immobilized by amine coupling chemistry (to a density of ˜250-850 RU) and BlAcore experiments carried out as described previously, using soluble mouse FcRn in Dulbecco's phosphate-buffered saline (DPBS) plus 0.01% Tween pH 6.0 or 7.4 as analyte. FcRn binds to two sites on IgG that are not equivalent. […] The data were processed as described previously.

[2] = target: T1, recombinant soluble mouse FcRn; assay: SPR (BIAcore 2000), Fc-hinge immobilized by amine coupling, soluble mouse FcRn as analyte, pH 7.4; value for the higher affinity site
Description: as §1

[3] = target: T1, recombinant soluble mouse FcRn; assay: SPR (BIAcore 2000), Fc-hinge immobilized by amine coupling, soluble mouse FcRn as analyte, pH 6.0; value for the higher affinity site
Description: as §1

[4] = target: T1, recombinant soluble mouse FcRn; assay: SPR (BIAcore T200), fusion immobilized on a CM5 chip, mFcRn as analyte, pH 6.0; value for the higher affinity site; pH 6.0
Description: (§2) Equilibrium dissociation constants (KDs) for the binding of Fc-OVA(323-339) (WT, TT-HN and H435A) to recombinant mouse FcRn were determined using surface plasmon resonance (BlAcore T200; GE Healthcare) and previously described methods. CM5 chips were coupled with recombinant Fc(WT)-OVA(323-339), Fc(TT-HN)-OVA(323-339), and Fc(H435A)-OVA(323-339) to densities of ˜500-900 RU followed by injection of mFcRn at various concentrations (1-2000 nM) at a flow rate of 10 μl/min using PBS (pH 6.0 or 7.4; Lonza), 0.01% (v/v) Tween-20 as running buffer. Flow cells were regenerated at the end of each cycle using 0.15 M NaCl, 0.1 M sodium bicarbonate (pH 8.5) buffer. FcRn binds to two sites on IgG-Fc that are not equivalent. […] The data were processed as described previously.

[5] = target: T1, recombinant soluble mouse FcRn; assay: SPR (BIAcore T200), fusion immobilized on a CM5 chip, mFcRn as analyte, pH 6.0; value for the higher affinity site
Description: as §2

[6] = target: T1, recombinant soluble mouse FcRn; assay: SPR (BIAcore T200), fusion immobilized on a CM5 chip, mFcRn as analyte, pH 7.4; value for the higher affinity site
Description: as §2

[7] = target: T1, recombinant soluble mouse FcRn; assay: SPR (BIAcore T200), fusion immobilized on a CM5 chip, mFcRn as analyte, pH 6.0
Description: as §2

- Kd [1]: 218 nM
B1: WT mouse Fc-hinge fragment (IgG1-derived) (other, UniProt P01868 98-324, looked up)
chain: VPRDCGCKPCICTVPEVSSVFIFPPKPKDVLTITLTPKVTCVVVDISKDDPEVQFSWFVDDVEVHTAQTQPREEQFNSTFRSVSELPIMHQDWLNGKEFKCRVNSAAFPAPIEKTISKTKGRPKAPQVYTIPPPKEQMAKDKVSLTCMITDFFPEDITVEWQWNGQPAENYKNTQPIMNTNGSYFVYSKLNVQKSNWEAGNTFTCSVLHEGLHNHHTEKSLSHSPGK
notes: domain: Fc-hinge; Recombinant Fc-hinge made in CHO-S cells by methods analogous to those for the Fc-MBP fusions; also called WT Fc-hinge

- Kd [2]: 115 nM
- Kd [3]: 2.6 nM
B2: m-set-1 mouse Fc-hinge fragment (IgG1-derived; T252L/T254S/T256F/E380A/H433K/N434F) (other, UniProt P01868 98-324, looked up)
chain: B1 chain with T32L, T34S, T36F, E160A, H213K, N214F
notes: domain: Fc-hinge; also called mutation-set-1

- Kd [2]: 20.4 nM
- Kd [3]: 1.1 nM
B3: m-set-2 mouse Fc-hinge fragment (IgG1-derived; T252Y/T256E/H433K/N434F) (other, UniProt P01868 98-324, looked up)
chain: B1 chain with T32Y, T36E, H213K, N214F
notes: domain: Fc-hinge; also called mutation-set-2; TT-HN

- Kd [4]: 300 nM
B4: mIgG1-Fc(WT)-OVA(323-339) (Fc fusion)
chain: VPRDCGCKPCICTVPEVSSVFIFPPKPKDVLTITLTPKVTCVVVDISKDDPEVQFSWFVDDVEVHTAQTQPREEQFNSTFRSVSELPIMHQDWLNGKEFKCRVNSAAFPAPIEKTISKTKGRPKAPQVYTIPPPKEQMAKDKVSLTCMITDFFPEDITVEWQWNGQPAENYKNTQPIMDTDGSYFVYSKLNVQKSNWEAGNTFTCSVLHEGLHNHHTEKSLSHSPGKGSGGISQAVHAAHAEINEAGRGSGHHHHHH

- Kd [5]: 3 nM
- Kd [6]: 14.9 nM
B5: mIgG1-Fc(TT-HN)-OVA(323-339) (Fc fusion)
chain: B4 chain with T32Y, T36E, H213K, N214F
notes: The limits of the leader are inferred as for m4; also called Fc(T252Y/T256E/H433K/N434F)-antigen

B6: mIgG1-Fc(H435A)-OVA(323-339) (Fc fusion)
chain: B4 chain with H215A
notes: The limits of the leader are inferred as for m4
- binding result [7]: no binding (tested: mFcRn injected at 1-2000 nM)
